Measurements published in patent US20130130985A1 (published 2013).
Bridges are numbered along the chain shown (N, C = ends). Where no end group is shown, it is not given here. [ ]: non-standard residue; d: D form. Sec = N[C@@H](C[SeH])C(=O)O

T1: human oxytocin receptor (human, UniProt P30559 1-389)
T1 sequence (looked up): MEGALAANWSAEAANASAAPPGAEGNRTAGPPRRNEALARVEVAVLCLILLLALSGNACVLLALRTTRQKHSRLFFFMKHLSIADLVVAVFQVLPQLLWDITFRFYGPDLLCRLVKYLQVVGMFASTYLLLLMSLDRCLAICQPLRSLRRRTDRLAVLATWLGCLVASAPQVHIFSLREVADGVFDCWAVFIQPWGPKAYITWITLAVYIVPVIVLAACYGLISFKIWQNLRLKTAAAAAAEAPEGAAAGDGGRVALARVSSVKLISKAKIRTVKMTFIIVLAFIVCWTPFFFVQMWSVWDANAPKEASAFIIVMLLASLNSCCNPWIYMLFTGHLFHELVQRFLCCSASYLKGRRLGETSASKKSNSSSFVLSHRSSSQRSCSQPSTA

T2: human vasopressin V1b receptor (human, UniProt P47901 1-424)
T2 sequence (looked up): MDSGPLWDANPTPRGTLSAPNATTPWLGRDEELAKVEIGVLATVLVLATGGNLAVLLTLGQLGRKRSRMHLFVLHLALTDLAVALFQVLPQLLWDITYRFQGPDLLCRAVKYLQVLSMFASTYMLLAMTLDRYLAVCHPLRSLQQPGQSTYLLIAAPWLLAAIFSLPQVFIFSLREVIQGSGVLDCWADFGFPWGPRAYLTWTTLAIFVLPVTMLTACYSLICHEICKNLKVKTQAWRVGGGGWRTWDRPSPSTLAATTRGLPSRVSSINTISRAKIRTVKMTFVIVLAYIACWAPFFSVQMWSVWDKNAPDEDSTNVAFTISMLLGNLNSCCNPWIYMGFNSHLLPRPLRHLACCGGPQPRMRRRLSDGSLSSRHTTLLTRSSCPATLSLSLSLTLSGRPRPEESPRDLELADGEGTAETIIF

B1: d[C1,6U]-OT-OH (peptide)
peptide: XYIQNXPLG
modifications: by its name: desaminoselenocysteine (3-selenopropanoic acid) at position 1, L-selenocysteine at position 6, diselenide bridge; free C-terminal carboxylic acid; structure is not given
B2: [S-S]-OT-OH (peptide)
peptide: CYIQNCPLG-OH
modifications: disulfide 1-6
B3: [C1U]-OT (peptide)
peptide: [Sec]YIQNCPLG-NH2
modifications: bridge 1-6 via selenosulfide
B4: Oxytocin (peptide)
peptide: CYIQNCPLX
modifications: C-terminal amide; Cys1 and Cys6 form the cyclic part (disulfide)
B5: [C6U]-OT (peptide)
peptide: CYIQN[Sec]PLG-NH2
modifications: bridge 1-6; also: selenosulfide bond
B6: [C1,6U]-OT-OH (peptide)
peptide: XYIQNXPLG
modifications: L-selenocysteine at positions 1 and 6, diselenide bridge; free C-terminal carboxylic acid
notes: also called [Se-Se]-OT-OH

How the values were obtained:
[1] = biological target: human vasopressin V2 receptor (human, UniProt P30518 1-371); assay: cell-based or functional assay
[2] = biological target: T1, human oxytocin receptor; assay: cell-based or functional assay
[3] = biological target: T2, human vasopressin V1b receptor; assay: cell-based or functional assay
[4] = biological target: T1, human oxytocin receptor; assay: cell-based or functional assay; remark: listed apart in the source
[5] = biological target: T2, human vasopressin V1b receptor; assay: cell-based or functional assay; remark: listed apart in the source
[6] = biological target: T3, human vasopressin V1a receptor (human, UniProt P37288 1-418); assay: cell-based or functional assay
T3 sequence (P37288 whole entry): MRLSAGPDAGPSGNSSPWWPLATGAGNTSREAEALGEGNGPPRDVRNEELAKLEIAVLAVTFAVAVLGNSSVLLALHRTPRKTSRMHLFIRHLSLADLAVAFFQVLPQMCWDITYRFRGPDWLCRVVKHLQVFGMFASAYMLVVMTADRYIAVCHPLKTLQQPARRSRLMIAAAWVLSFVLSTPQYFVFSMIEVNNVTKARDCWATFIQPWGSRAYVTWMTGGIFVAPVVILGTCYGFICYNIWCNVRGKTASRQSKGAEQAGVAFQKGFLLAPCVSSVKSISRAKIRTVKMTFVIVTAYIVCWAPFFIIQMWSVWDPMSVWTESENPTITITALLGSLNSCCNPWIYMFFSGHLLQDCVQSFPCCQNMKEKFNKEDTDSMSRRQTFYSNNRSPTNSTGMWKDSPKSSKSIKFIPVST

[7] = biological target: T3, human vasopressin V1a receptor; assay: cell-based or functional assay; remark: listed apart in the source
[8] = biological target: T1, human oxytocin receptor; assay: radioligand displacement (3H-OT), SPA beads, COS-1 membranes

Binder | Emax, cAMP accumulation assay [1] [%] | Emax, IP-One HTRF assay [2] [%] | Emax, IP-One HTRF assay [3] [%] | Emax, FLIPR calcium assay [4] [%] | Emax, FLIPR calcium assay [5] [%] | EC50, FLIPR calcium assay [6] [µM] | Emax, IP-One HTRF assay [7] [%] | Emax, FLIPR calcium assay [6] [%] | IC50 [8] [nM] | EC50, cAMP accumulation assay [1] [nM] | EC50, IP-One HTRF assay [7] [µM]
B1 | 135 | 71 | 63 | 49 | 58 | > 100 |  |  |  |  | 
B2 |  |  |  |  |  |  | 77 |  |  |  | 
B3 |  | 84 |  | 85 | 82 |  | 96 | 90 |  |  | 
B4 |  |  |  |  |  |  | 79 | 71 |  |  | 
B5 |  | 55 |  | 82 | 73 |  | 67 | 104 |  |  | 
B6 | 114 | 60 |  | 38 |  | > 100 |  |  | 1280 | 495 | > 100
